Data on five molecules can be found in paper PMC2700736.

Like-named read-outs stand apart in the source and are kept apart here.

By Kd is commonly meant the constant that tells how readily two partners part at equilibrium. Read a low Kd as tighter binding.

Holding throughout (assay): filter binding
For series [1], the target named is T1, I-SceI K122I (UniProt P03882 1-235, K122I).
T1 sequence: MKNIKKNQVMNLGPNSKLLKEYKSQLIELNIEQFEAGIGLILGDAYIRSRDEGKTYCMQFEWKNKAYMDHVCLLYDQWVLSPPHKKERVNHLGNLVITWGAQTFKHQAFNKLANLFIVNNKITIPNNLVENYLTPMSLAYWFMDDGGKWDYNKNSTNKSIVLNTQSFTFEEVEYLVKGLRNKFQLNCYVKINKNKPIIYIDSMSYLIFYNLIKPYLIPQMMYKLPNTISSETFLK

The target in series [2] is T2, I-SceI wild-type (UniProt P03882 1-235).
T2 sequence: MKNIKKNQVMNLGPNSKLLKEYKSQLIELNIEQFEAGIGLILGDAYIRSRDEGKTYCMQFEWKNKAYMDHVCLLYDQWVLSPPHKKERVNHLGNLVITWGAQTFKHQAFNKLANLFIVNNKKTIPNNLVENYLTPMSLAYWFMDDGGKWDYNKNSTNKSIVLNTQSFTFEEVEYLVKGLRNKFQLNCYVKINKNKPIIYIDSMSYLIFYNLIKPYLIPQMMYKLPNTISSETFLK

For series [3], the target named is T3, I-SceI K223I (UniProt P03882 1-235, K223I).
T3 sequence: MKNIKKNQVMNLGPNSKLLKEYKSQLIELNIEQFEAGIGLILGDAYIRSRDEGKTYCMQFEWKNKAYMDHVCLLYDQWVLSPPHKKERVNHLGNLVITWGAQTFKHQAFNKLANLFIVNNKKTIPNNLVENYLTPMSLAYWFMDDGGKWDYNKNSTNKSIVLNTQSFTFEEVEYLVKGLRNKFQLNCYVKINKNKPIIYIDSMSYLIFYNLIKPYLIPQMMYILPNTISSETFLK

Series [4] addresses T1, I-SceI K122I. This is another data set of the same source.
The target of series [5] is T2, I-SceI wild-type. The source holds these as a separate data set.
Series [6] deals with T3, I-SceI K223I. The source holds these as a separate data set.

B1: 94-mer intact hairpin substrate (structured_DNA)
DNA: GGTGAAACACTCGAACGCTAGGGATAACAGGGTAATATAGCCAATCCAATGATTGGCTATATTACCCTGTTATCCCTAGCGTTCGAGTGTTTCA
For the molecule B1, the Kd turned out to be 17.3 ± 0.4 nM in series [1]; 14.5 ± 5.7 nM in series [2]; 15.4 ± 0.3 nM in series [3]; 7.3 ± 0.4 nM in series [4]; 2.3 ± 0.4 nM in series [5]; 7.4 ± 1.3 nM in series [6].

B2: Nicked bottom DNA strand substrate (structured_DNA)
DNA 1: GGTGAAACACTCGAACGCTAGGGATAACAGGGTAATATAGCCAATCCAATGATTGGCTATATTACCCTGTTAT
DNA 2: CCCTAGCGTTCGAGTGTTTCA
modifications: nick at bottom-strand cleavage site; 5' phosphate at nick (21-mer)
For the molecule B2, the Kd in series [2] was found to be 13.2 ± 2.1 nM; in series [5], 3.2 ± 0.2 nM.

B3: Nicked top DNA strand substrate (structured_DNA)
DNA 1: GGTGAAACACTCGAACGCTAGGGATAA
DNA 2: CAGGGTAATATAGCCAATCCAATGATTGGCTATATTACCCTGTTATCCCTAGCGTTCGAGTGTTTCA
modifications: nick at top-strand cleavage site; 5' phosphate at nick (67-mer)
As for B3, the figures for the Kd in series [2] and in series [5] were 19.4 ± 0.7 nM and 4.2 ± 1.1 nM, respectively.

B4: Duplex linear product (upstream cleavage product) (dsDNA)
DNA 1: GGTGAAACACTCGAACGCTAGGGATAA
DNA 2: CCCTAGCGTTCGAGTGTTTCA
The molecule B4 had an equilibrium dissociation constant (Kd) in series [5] of 175 ± 48 nM.
Still for that read-out and setting: as for CAGGGTAATATAGCCAATCCAATGATTGGCTATATTACCCTGTTAT (structured_DNA) [Hairpin product 46-mer (downstream cleavage product)], the figure is 3.3 ± 0.6 nM.
